Source: US20250074980A1 (BRIGHAM AND WOMEN S HOSPITAL, published 2025)
Values belong to the binder of their own block, whether it stands above or below them.

Legend:
[1] = target: T1, His-tagged CEACAM1 (human, UniProt P13688 35-428); test: SPR multi-cycle
T1 construct: 45 kDa SPR analyte; also called CEACAM1-HIS; CEACAM1 analyte
T1 sequence: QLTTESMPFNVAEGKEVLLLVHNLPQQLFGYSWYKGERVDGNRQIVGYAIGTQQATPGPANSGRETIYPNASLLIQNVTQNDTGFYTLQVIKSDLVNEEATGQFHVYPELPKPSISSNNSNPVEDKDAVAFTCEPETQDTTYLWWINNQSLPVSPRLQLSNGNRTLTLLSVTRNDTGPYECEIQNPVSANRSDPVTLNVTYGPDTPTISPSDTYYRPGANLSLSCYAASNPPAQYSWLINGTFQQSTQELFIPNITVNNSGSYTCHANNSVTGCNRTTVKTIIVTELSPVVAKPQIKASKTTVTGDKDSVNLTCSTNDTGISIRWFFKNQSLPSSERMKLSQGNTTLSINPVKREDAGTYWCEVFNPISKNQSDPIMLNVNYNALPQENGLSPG
Procedure, shortened: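 Surface plasmon resonance sensorgrams on a Biacore T200 provided Kon, koff, Kd and relative KD. Antibody at 1 μg/ml was captured to ~75 RU on a Series S Protein A chip, then His-tagged CEACAM1 was injected at 80 μl/min in 2-fold steps from 200 to 3.125 nM or 100 to 1.5625 nM, with 50 or 150 seconds of association and 100 seconds of dissociation, at 25° C in HBS-P+ (pH 7.4).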

[2] = target: T2, CEACAM1 on transfected HeLa cells (human, UniProt P13688 35-526); test: flow cytometry, transfected HeLa
T2 construct: also called HeLa-CEACAM1; HeLa C1
T2 sequence: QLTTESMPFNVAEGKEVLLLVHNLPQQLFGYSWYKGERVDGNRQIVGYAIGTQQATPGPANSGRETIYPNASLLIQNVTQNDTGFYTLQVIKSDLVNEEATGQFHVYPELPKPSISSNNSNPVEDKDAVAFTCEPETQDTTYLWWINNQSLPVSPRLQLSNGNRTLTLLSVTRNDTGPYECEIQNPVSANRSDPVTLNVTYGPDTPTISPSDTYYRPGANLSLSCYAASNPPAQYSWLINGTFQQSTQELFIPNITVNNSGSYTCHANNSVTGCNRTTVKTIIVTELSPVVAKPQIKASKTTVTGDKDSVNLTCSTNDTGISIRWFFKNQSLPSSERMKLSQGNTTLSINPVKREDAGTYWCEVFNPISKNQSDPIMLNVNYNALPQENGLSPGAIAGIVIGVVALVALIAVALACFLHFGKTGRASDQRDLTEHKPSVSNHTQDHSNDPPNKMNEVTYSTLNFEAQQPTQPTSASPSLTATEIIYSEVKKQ

[3] = target: T3, CEACAM5 on transfected HeLa cells (human, UniProt P06731 35-685); test: flow cytometry, transfected HeLa
T3 construct: whole, on cells; also called HeLa-CEACAM5; HeLa C5
T3 sequence (looked up): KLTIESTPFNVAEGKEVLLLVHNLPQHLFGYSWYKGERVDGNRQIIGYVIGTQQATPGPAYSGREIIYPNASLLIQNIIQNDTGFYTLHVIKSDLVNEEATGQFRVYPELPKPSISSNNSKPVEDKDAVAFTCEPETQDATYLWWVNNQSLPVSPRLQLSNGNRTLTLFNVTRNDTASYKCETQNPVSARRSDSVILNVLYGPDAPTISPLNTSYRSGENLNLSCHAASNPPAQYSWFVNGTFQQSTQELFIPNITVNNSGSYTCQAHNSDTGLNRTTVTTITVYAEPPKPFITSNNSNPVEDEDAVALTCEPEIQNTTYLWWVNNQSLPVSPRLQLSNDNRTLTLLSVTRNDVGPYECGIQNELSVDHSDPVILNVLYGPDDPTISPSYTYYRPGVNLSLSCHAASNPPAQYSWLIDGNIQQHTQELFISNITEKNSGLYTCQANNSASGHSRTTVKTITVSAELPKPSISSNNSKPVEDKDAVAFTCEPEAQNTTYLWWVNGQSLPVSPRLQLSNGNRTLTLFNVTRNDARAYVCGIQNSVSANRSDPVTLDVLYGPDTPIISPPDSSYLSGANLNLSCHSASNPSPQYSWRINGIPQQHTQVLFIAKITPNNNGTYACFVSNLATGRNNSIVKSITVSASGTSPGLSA

[4] = target: T4, CEACAM6 on transfected HeLa cells (human, UniProt P40199 35-320); test: flow cytometry, transfected HeLa
T4 construct: whole, on cells; also called HeLa-CEACAM6; HeLa C6
T4 sequence (looked up): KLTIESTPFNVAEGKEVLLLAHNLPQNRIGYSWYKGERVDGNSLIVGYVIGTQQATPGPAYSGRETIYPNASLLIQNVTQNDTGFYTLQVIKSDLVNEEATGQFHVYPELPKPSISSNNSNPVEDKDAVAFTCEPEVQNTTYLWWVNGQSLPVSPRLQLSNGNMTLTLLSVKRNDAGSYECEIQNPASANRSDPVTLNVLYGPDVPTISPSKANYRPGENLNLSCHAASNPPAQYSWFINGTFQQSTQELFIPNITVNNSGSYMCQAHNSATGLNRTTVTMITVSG

[5] = target: T5, GST-CEACAM1 (human, UniProt P13688 35-141, limits assumed); test: scFv binding ELISA on GST-CEACAM1 coated at 1.0 µg/ml, anti-HIS6-HRP and TMB
T5 construct: also called human CEACAM1-GST protein
T5 sequence: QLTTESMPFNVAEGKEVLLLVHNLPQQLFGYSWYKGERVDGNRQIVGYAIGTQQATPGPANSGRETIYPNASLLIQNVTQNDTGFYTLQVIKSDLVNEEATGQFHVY
Description: The binding of affinity matured purified scFv to human CEACAM1 was analyzed using GST-CEACAM1. A Nunc Immuno MaxiSorp 96 well flat bottom microtitre plate was pre-coated with 1.0 μg/ml GST-CEACAM1 overnight at 4° C. The following day a two-fold dilution series of VH1/Vκ8 S29A parent scFv or test scFv (50 μg/ml to 0.8 μg/ml) in PBSB was incubated for 2 hours at RT on pre-coated ELISA plates. The binding of scFv was detected with an anti-HIS6-HRP antibody and TMB substrate. The reaction was stopped with 3 M HCl, absorbance read at 450 nm on a Dynex Technologies MRX TC II plate reader and the binding curves plotted. Parent scFv (VH1/Vκ8 S29A scFv) was included on each ELISA plate as a reference. An irrelevant scFv was included on at least one plate as a negative control. It was observed that a number of scFvs had improved binding to CEACAM1 compared to the parental VH1/Vκ8 S29A scFv. […] All 34 scFv variants were reformatted to whole IgG to provide greater accuracy with regard to purity and quantitation. The reformatting further allowed for an analysis of the avidity component of antibody binding, which is influenced by the bivalent nature of IgGs. As used herein, “avidity” is the measure of the strength of binding between an antigen-binding molecule (such as an antibody or antibody fragment thereof described herein) and the pertinent antigen.

[6] = target: T1, His-tagged CEACAM1; test: SPR single-cycle, purified IgG captured
Procedure, shortened: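 Surface plasmon resonance single-cycle kinetics on a Biacore T200 at 25° C in HBS-P+ (pH 7.4). Purified IgG was captured on a Series S Protein A chip and His-tagged CEACAM1 was the analyte. Reference-channel and blank-run signals were subtracted. Kon, koff and Kd were fitted, and relative KD was calculated against the parent antibody assayed in the same experiment.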

[7] = target: T1, His-tagged CEACAM1; test: SPR single-cycle, supernatant IgG captured
Procedure, shortened: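 On a Biacore T200 run at 25° C in HBS-P+ (pH 7.4), IgG captured on Protein A was probed with His-tagged CEACAM1 by single-cycle surface plasmon resonance. Fitted Kon, koff and Kd gave a relative KD referenced to the parent antibody from the same experiment. The IgG came from filtered, ELISA-quantified supernatants of HEK EBNA cells transiently transfected with PEI and harvested after 5-7 days.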

[8] = target: T6, CEACAM3 on transfected HeLa cells (human, UniProt P40198 35-252); test: flow cytometry, HeLa-CEACAM3 transfectants, % staining, stacked bars
T6 construct: whole, on cells; also called HeLa-CEACAM3; HeLa C3
T6 sequence (looked up): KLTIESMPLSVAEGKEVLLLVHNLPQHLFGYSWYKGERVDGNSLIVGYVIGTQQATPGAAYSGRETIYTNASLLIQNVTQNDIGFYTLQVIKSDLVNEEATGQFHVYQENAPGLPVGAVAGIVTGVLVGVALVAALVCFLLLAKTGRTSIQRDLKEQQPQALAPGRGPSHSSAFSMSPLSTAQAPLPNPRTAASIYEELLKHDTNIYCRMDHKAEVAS
Description: (§1) FIG. 11 illustrates the binding selectivity of different affinity-matured CEACAM1 antibodies. […] HELA cells were transfected with vector alone (HeLa-Neo) or vectors expressing CEACAM1, CEACAM3, CEACAM5, or CEACAM6, respectively, and stained with the indicated antibodies. […] MOPC=mouse IgG1 control antibody. Mouse antibodies as positive control for transfected CEACAM isoforms: Col-1=CEACAM3 and CEACAM5 antibody. 9A6=CEACAM6 antibody. T84.1=CEACAM cross-reactive antibody and T84.66=CEACAM5 antibody. Only 2nd FITC=No primary antibody, only secondary FITC conjugated antibody. […] Data for affinity-matured antibodies 9B3_8H3/Vκ8 S29A, 8H3_9B3/CP08_E05, and 8H3_9C2/CPO08_F05, as well as data for CEACAM8 antibody 80H3 were omitted from the FIG. due to an unusually high background signal.

[9] = target: T3, CEACAM5 on transfected HeLa cells; test: flow cytometry, HeLa-CEACAM5 transfectants, % staining, stacked bars
Description: as §1

[10] = target: T4, CEACAM6 on transfected HeLa cells; test: flow cytometry, HeLa-CEACAM6 transfectants, % staining, stacked bars
Description: as §1

B2: CP08C04 (scFv)
scFv, VH-linker-VL: EVQLLESGGGLVQPGGSLRLSCAASGFTFSSHGMSWVRQAPGKGLEWVATISSGGTYTYYPDSVKGRFTISRDNSKNTLYLQMNSLKAEDTAMYYCARHDFDYDAAWFAYWGQGTLVTVSSGGGGSGGGGSGGGGSEIVLTQSPATLSLSPGERATLSCRANSAVSYMYWYQQKPGQAPRPWIYLTSNRATGVPARFSGSGSGTDYTLTISSLEPEDFAVYYCQQWSSNPPTFGQGTKLEIK
notes: purified scFv form; the IgG form is m90
EC50 (read off the curve) [5]: ~10 µg/mL

B4: CP08H03/CP08E05 (antibody, IgG4, V domains shown)
VH: EVQLLESGGGLVQPGGSLRLSCAASGFIFSSHGMSWVRQAPGKGLEWVATISSGGTYTYYPDSVKGRFTISRDNSKNTLYLQMNSLKAEDTAMYYCARHDFDYFPYWFAHWGQGTLVTVSS
VL: EIVLTQSPATLSLSPGERATLSCRANSAVSYMYWYQQKPGQAPRPWIYLTSNRATGVPARFSGSGSGTDYTLTISSLEPEDFAVYYCQQWTTNPPTFGQGTKLEIK
notes: IgG4 (S241P), kappa
Kd [6]: 110 nM
koff [6]: 0.008 s⁻¹
kon [6]: 76000 M⁻¹ s⁻¹
relative KD to parent [6]: 4.5
Kd [7]: 120 nM
koff [7]: 0.0085 s⁻¹
kon [7]: 71000 M⁻¹ s⁻¹
relative KD to parent [7]: 4.6
binding result [8]: no binding
binding result [9]: no binding
binding result [10]: no binding

Now from value to binder:

Kd [1]: 198 nM
koff [1]: 0.0299 s⁻¹
kon [1]: 151000 M⁻¹ s⁻¹
relative KD [1]: 1.89
relative amount of cells bound [2]: 79.9
relative amount of cells bound [3]: 15.5
relative amount of cells bound [4]: 0.18
B1: VH0/Vκ0 N26Q (antibody, IgG4, name in Kabat numbering, V domains shown)
VH: EVQLVESGGDLVKPGGSLKLACAASGFIFSSHGMSWVRQTPDKRLEWVATISSGGTYTYYPDSVKGRFTISRDNDKNTLYLQMNSLKSEDTAMYYCARHDFDYDAAWFAYWGQGTLVTVSS
VL: QIVLTQSPALMSASPGVKVTMTCSAQSSVSYMYWYRQKPRSSPKPWIYLTSNLASGVPARFSGSGSGTSYSLTISSMEAEDAATYYCQQWSSNPPTFGSGTKLEIK
notes: aglycosylated chimeric, IgG4 (S241P), kappa

EC50 (read off the curve) [5]: ~10 µg/mL
B3: CP09F03 (scFv)
scFv, VH-linker-VL: EVQLLESGGGLVQPGGSLRLSCAASGFTFNNHGMSWVRQAPGKGLEWVATISSGGTYTYYPDSVKGRFTISRDNSKNTLYLQMNSLKAEDTAMYYCARHDFDYDAAWFAYWGQGTLVTVSSGGGGSGGGGSGGGGSEIVLTQSPATLSLSPGERATLSCRANSAVSYMYWYQQKPGQAPRPWIYLTSNRATGVPARFSGSGSGTDYTLTISSLEPEDFAVYYCQQWSSNPPTFGQGTKLEIK
notes: purified scFv form; the IgG form is m63
